Test system: K4 kissing-loop RNA reporter
Test: apparent KD of K4 kissing-loop reporter; higher = weaker reporter binding
Conditions: Eterna round: R107
Method: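 RNA-MaP round R107: designed RNA switches with theophylline, tryptophan, arginine or FMN aptamers are transcribed on-chip within common flanks. They are titrated with a labelled K4 kissing-loop RNA reporter in RNA-MaP buffer (100 mM Tris pH 7.5, 80 mM KCl, 4 mM MgCl2), without ligand or with the indicated ligand. Median apparent KD per design.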

[1] = input ligand: theophylline 20 uM
[2] = input ligand: tryptophan 2.4 mM
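Further: bound reporter read as fluorescence of individual clusters on recovered sequencing chips by microscopy, with normalized cluster intensities fitted with a binding model.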

Sequence | apparent KD of K4 kissing-loop reporter (input ligand: FMN 200 uM) [nM] | apparent KD of K4 kissing-loop reporter (input ligand: arginine 13.2 mM) [nM] | apparent KD of K4 kissing-loop reporter (input ligand: none) [nM] | apparent KD of K4 kissing-loop reporter [1] [nM] | apparent KD of K4 kissing-loop reporter [2] [nM]
GUCUGCGUCUCGGCCGCCACUCACUAGUGAUGUUAGUAAGGAGCGACUAGAGAAGUCCAGUUAAUGAGGACCGGGAGAAGCUCUU [Exclusion Tryptophan B GF 3] | 122 | 133 | 137 | 106 | 117
UUUAACGAGUGAUGUUCGAAAAGUAAUGGUGAGGAUAUCGAUUUUUCGAGAAGGCACCUCGAAGUGAUACGAAAGUAUCGCUUCG [FMN A 4] | 173 | 276 | 261 | 257 | 199
CGCUUGGGUGCGGCCGCCACUAGAGCGUGACACGGGUCCCAAAAGGGUGCAGUGAUGUUGCAGCCUAGGACCGGGCACCUCUGGC [Beveesbe] | 107 | 83 | 90.4 | 70.1 | 167
CCAAUCUUUUACGAUACCAGUCUAAUAUAUUUAAUCAAAACCCUCGCCGAGUGAUGUUCGGACCCUUGGCAGCGUUUGCGAGAGG [xssgstkmullin] | 656 | 365 | 543 | 452 | 424
AAGCAGUCACUCGAAGCCAUCGAAGAUGGGCGAGGACCGGUACGGCCGCCACUCGGAGUGAUGUUCCGAAGACUGCAAAAUAAAA | 512 | 669 | 498 | 508 | 567
UGGACCUGACUCGAUAAGAGUCAAGGAGAUACCAGCCACGAAAGUGGCCCUUGGCAGCUCUGCCAGUGAUGUUGGUCAAGGUCCU [#SwitchBubble 7 #StaticStem] | 976 | 696 | 912 | 393 | 776
UAACUCUUGCAGUGAUGUUGCAAGUAAGCUCAGGAUAUCAGGAAACUGAGAAGGGAGCAUCCUGAGCAACUGCAAGAGCUCAGAA [[K1]-[K2]-[F1]-[F2]-[F]'-[K]'-[F]''_Design1] | 224 | 101 | 95.9 | 160 | 87.5
GUUGACAGACUGCAAAACUAGUCAACAGACUAGGAUAUCAGGAAACUGAGAAGGAGUCAAGUUGCAGUGAUGUUGCAAGAAUAAU [KL-SSFMN-A27] | 137 | 182 | 173 | 214 | 136
AAGUCAUAGGCAGGAUAUGCUUAGUAUUAAGGCCAUAUAUACGUAUAGAGUGAUGUUUUGUACCAGGCAGAAGGGCUACAUCAGU [FMN B Excl V6 (+A)] | 448 | 483 | 603 | 634 | 536
UACUUAUAUUUCAACUUAAAUUAUUCAGAAGGAGCGUGAUCAUUCACAGGUAGGUCGCUGAACUAGUGAUGUUAGUUUUAAUUUU [JR_Nu_ExcArginiA_Sub022] | 66.3 | 127 | 76.5 | 116 | 62.2
UGUAUGUGAUUUGAUACCAGACCAGCUGGUGGUUCACGAGUGAUGUUCGUGUUGGUUUGGGUCCCUUGGCAGCAAAUCGCAUACU [KL-SSTheoB12] | 159 | 121 | 144 | 128 | 140
UUUUUAUGCAGUGAUGUUGCUAAUAUAACAGAGGAUAUGCAUUAAUGCAGAAGGCUGAAAUACUAUACUUUAAUAAAUUAAAUUU [JR_SSFMNA_Sub014] | 89.9 | 109 | 85.5 | 134 | 85
AGGCACGAGCAAGGAUAUUGAGUAGAGUGAUGUUCUGCCUGGGUUGGCUCGAAAGAGCCUUCUCAGCGAGAAGGUGCUCGUGCCU [#2 Same State - FMN A Attempt #22 (HarryS)] | 290 | 603 | 616 | 367 | 719
UUAGAGAUCUCAGGAUAUGAGUGAUGUUGAUAUCAAGAUCUGAGAUAGAAUUCUAUCUCAGAUCAAUCAGAAGGGAGAUCUCAUU [AK1.3 Exc FMN B] | 172 | 109 | 194 | 411 | 263
GCCUAGGCUCGAAAGAGCCUAGGCUUUACUCAGGAUAUCUGGAAACAGAGAAGGGAGCUACUAGUGAUGUUAGGAAUUCCCUAAG | 45.9 | 80.3 | 133 | 141 | 87.8
CCAUUCUGUUACGAUACCAGUCUAAUAUAUUUGAUCAAUACCCUCGCCGAGUGAUGUUCGGACCCUUGGCAGCGUCUGGGACAGG [bbybmullin] | 453 | 377 | 410 | 440 | 364

Sequence | apparent KD of K4 kissing-loop reporter (input ligand: FMN 200 uM) [nM] | apparent KD of K4 kissing-loop reporter (input ligand: arginine 13.2 mM) [nM] | apparent KD of K4 kissing-loop reporter (input ligand: none) [nM] | apparent KD of K4 kissing-loop reporter [1] [nM] | apparent KD of K4 kissing-loop reporter [2] [nM]
GUAGCACUUGAUAGUGAUGUUAUCAAGGGCAAGGAUAUCAUCUCAAUGAGAAGGUGUCCUUGAUAACUGCUACGGGAAUAUCCCA [Omei KL FMN A Exc D v6] | 444 | 89 | 96.8 | 86 | 102
AGGAGCGUGCGAUGCAAAUCGCACGCUCCUCGAGGACCGGUACGGCCGCCACUCGCUCGCGCCGAGUGAUGUUCGGCCGGCGAAC [#2 Same State - Tryptophan A Attempt #10 (HarryS)] | 266 | 236 | 265 | 289 | 452
GAAUGAUAGUAAGGAUAUAGAUAAUCCUUAUAUAUAUCGAGUGAUGUUCGAUGUGGCAAGAUACAUCUAGAAGGUACUGUAAGGU [Same State FMN B GF 16] | 309 | 321 | 361 | 361 | 240
UUUUAUAACCGAAGGAGCGCGUGGGCGCAGUGAUGUUGCGCCCGACAUCACUUCAACUUAACGCAGGUAGGUCGCGGUUUUAAUG [Arginine B (Excl) V3] | 148 | 147 | 181 | 163 | 168
CAUAGACAAGUGAUGUUUGUCAUAACCGAAGGAGCGUCUUUAAAGACAGGUAGGUCGCGGAUUAAUUAAGUUAUUAUUCUUUUUA [JR_SSArginiA_Sub018] | 552 | 494 | 644 | 573 | 439
AGCGUCUGAAGAGGAUAUGACCAGUGAUGUUGGUUACUACCUCAAAUUAGUGUCUCGUCAAAAUCGUCAGAAGGCUUCGACGAGC [#09 K4 FMN B Exclusion] | 122 | 96.2 | 95.7 | 92.8 | 91.2
GAAAGAAAGUAUGAUACCAGACACCCGAGUGAUGUUCGGAGCAGAGUGAUGUUCUUUUAAGUCCCUUGGCAGCAUAAAAGAAAAG [whbob_SS_Theo_B_sa83] | 192 | 219 | 238 | 294 | 166
AGCGGCCAGUCGGCCGCCACUCCGGGCAGUGAUGUUGCGAAGUGUCUACUAGAGUGAUGUUCUAAGAGGACCGGGACUGACGUAU [Exclusion Tryptophan B Gf 11] | 434 | 394 | 534 | 476 | 332
UGAUACCAGACUGAUACCAGCCAGUGAUGUUGGCUAAGCCAAAUAGGUGUCAAAGACACCGGCCCUUGGCAGCAGUCUGGUAUCU [TheoBX 2 #SwitchBubble #StaticStem] | 133 | 113 | 126 | 136 | 119
ACGUCCGGAUUAAUCGUGGGCAUGGUCGAUACCAGAUCUUUAAUGAUCCCUUGGCAGCGACAUGAGUGAUGUUCAUGUGCGAUGA [KL-XTheo-A8 #analogue] | 188 | 152 | 186 | 244 | 179
GUAGACGUACCUUCAGUGAUGUUGAAGGAUACCAGAUGUUACCACAUCCCUUGGCAGCCUUGGGAUAACAGUGAGUUGGAAUAUG [Usrite] | 182 | 137 | 172 | 156 | 150
UGUCAUUGGUCUGAUACCAGUACCCUUGGCAGCCGAGGAGUGAUGUUCCAAGGAUACCAGUACCCUUGGCAGCAGACCGAUGACU [TheoBS 30 #DoubleAptamer #SwitchBubble] | 219 | 178 | 186 | 108 | 215
CCGGCCCAGCCGGAUACCAGUGCGCCGCAGGGAACGGCGGGCCCAGAGUGAUGUUCGGGACACCCUUGGCAGCCGCCUGGGUCCC [#2 Same State - Theophylline B Attempt #30 (HarryS)] | 618 | 364 | 669 | 355 | 435
GGACGCCGGUCGGCCGCCACUCACAGCAGUGAUGUUGCUGAGAAUGUAGCGGAGUGAUGUUCCGAGAGGACCGGGACUGCAGUUU [Same State Tryptophan B GF 9] | 240 | 157 | 198 | 186 | 210
UUUUGGUACUGAGGAUAUUCGACGAAAUAUAGUGAUGUUAUAUAAGGAGGAGGAGGGUGGGAGGAAGGAGAAGGCAGAAGAGGAG [#06 K4 FMN B Exclusion] | 285 | 179 | 238 | 285 | 185
GCUAUGGUAGGAAGGAGCGCUUAAUUACUAAUAAGAGUGAUGUUCGAUAGUAGGUAUUUGUAGCAGGUAGGUCGCCUACUAUAGC [KL-Arg B24] | 264 | 174 | 444 | 230 | 215

— the supplement of paper PMC9170038
